Results as given in PMC5979038.

Key:
FtsZ-YFP-mts (E. coli) [1] = assay: single-molecule TIRF residence time; subunits labelled with GFP-Booster Atto647N in filaments on the bilayer, about 0.2 μM protein, 4 mM GTP, 1 mM free Mg2+ (dynamic rings); double exponential fit with photobleaching term
FtsZ-YFP-mts (E. coli) [2] = assay: AUC; sedimentation velocity, 7 μM protein, working buffer, 4 mM GTP and 5 mM Mg2+; monomers to higher-order species
FtsZ-YFP-mts (E. coli) [3] = assay: single-molecule TIRF residence time; subunits labelled with GFP-Booster Atto647N in filaments on the bilayer, about 0.2 μM protein, with GTP, 5 mM free Mg2+ (high-density mesh)

FtsZ-YFP-mts was tested. Which mean residence time of single subunits within the filaments on the membrane (FtsZ-YFP-mts (E. coli) [1]) did it give?
The mean residence time of single subunits within the filaments on the membrane was 11.5 s.

And the percent of protein in higher-order species (FtsZ-YFP-mts (E. coli) [2])?
Its percent of protein in higher-order species is 70%.

What about the mean residence time of single subunits within the filaments on the membrane (FtsZ-YFP-mts (E. coli) [3]) of the same substance?
The mean residence time of single subunits within the filaments on the membrane was 15.1 s.
